Assay results taken from patent publication US20240083986A1 (published 2024).
Where a chain is given by its changes, count along the chain named. Names may count otherwise.

T1: natural Bet v 1 (Indoor, Cat #NA-BV1-1) (Betula verrucosa (European white birch, …, UniProt P15494 2-160))
T1 construct: Bought natural protein purified from birch pollen; also called nBet v 1
T1 sequence: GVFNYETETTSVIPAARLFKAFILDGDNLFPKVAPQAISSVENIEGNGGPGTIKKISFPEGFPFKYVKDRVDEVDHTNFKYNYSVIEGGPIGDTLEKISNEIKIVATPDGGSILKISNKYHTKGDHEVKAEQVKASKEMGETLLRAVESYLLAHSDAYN

T2: mutant Bet v 1-MMH (Betula verrucosa (European white birch, …))
T2 construct: also called CHO produced recombinant Bet v 1 containing a S85A mutation with a C-terminal myc-myc hexahistidine tag
T2 chain: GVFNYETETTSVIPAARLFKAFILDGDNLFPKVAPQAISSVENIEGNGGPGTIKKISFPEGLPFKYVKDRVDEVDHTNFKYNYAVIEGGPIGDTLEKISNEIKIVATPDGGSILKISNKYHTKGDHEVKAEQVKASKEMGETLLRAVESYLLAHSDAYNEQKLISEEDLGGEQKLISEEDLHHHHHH

T3: Alder (Aln g 1, MyBiosource, Cat #MBS1041484) (Alder, UniProt P38948 2-160, limits assumed)
T3 construct: Bought reagent
T3 sequence (looked up): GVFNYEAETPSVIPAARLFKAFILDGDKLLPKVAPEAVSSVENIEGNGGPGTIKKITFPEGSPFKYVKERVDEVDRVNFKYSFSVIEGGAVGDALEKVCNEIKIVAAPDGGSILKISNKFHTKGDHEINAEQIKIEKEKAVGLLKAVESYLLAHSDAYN

T4: Celery (Api g 1, MyBiosource, Cat #MBS1171376) (Celery, UniProt P49372 1-154, limits assumed)
T4 construct: Bought reagent
T4 sequence (looked up): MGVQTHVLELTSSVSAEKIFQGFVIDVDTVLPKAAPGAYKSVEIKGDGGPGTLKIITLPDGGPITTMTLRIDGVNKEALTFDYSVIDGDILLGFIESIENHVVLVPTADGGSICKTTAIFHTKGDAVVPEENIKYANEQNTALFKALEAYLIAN

T5: Apple (Mal d 1, MyBiosource, Cat #MBS1224919) (Apple, UniProt P43211 2-159, limits assumed)
T5 construct: Bought reagent
T5 sequence (looked up): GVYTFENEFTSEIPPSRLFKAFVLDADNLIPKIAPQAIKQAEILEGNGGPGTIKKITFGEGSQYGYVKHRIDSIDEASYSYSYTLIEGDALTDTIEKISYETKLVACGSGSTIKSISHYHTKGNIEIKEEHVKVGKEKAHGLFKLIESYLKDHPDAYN

T6: European Hornbeam (Car b 1 isoform 1A & 1B, MyBiosource, Cat #MBS1200018) (European Hornbeam, UniProt P38949 2-160)
T6 construct: Bought reagent
T6 sequence (looked up): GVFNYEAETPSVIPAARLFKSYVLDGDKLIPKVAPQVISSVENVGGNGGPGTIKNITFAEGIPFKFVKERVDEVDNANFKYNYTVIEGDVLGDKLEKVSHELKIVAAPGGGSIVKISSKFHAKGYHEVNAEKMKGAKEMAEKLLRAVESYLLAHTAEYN

T7: natural Bet v 1 (Betula verrucosa (Betula pendula), UniProt P15494 2-160)
T7 construct: bought natural protein (Indoor Biotechnologies #NA-BV1-1); also called nBet v 1; Biotinylated Bet v 1
T7 chain: T1 sequence with F62L

T8: mutant Bet v 1-MMH (Betula verrucosa (Betula pendula))
T8 construct: CHO produced; also called recombinant mutant Bet v 1 with C-terminal myc-myc-hexahistidine tag
T8 chain: T2 chain

B1: H4H17082P2 (antibody, human IgG4 S228P, kappa, V domains shown)
VH: QVQLVQSGAEVKKPGASVKVSCKASGYTFISYNIFWVRQATGQGLDWMGWMNPFRNNAGYAQKFQGRVTVTWDTSISTAYMELSSLSSEDTAIYYCAREHGSSWGFFDYWGQGTLVTVSS
VL: not shown
notes: human IgG4; also called REGN5715; MAB2
B2: H4H16943P (antibody, human IgG4, V domains shown)
VH: EVQLVESGGGLVQPGGSLRLSCTASGFMSSMYWMSWVRQAPGKGLEWVSNIKQDGTEKNYVESVKGRFTISRDNAKNSLYLQINSLRGEDTAVYYCARDLYSSSSGYYYYGLDVWGQGTTVTVSS
VL: DIVMTQSPLSLPVTPGEPASISCRSSQSLLHSNKYNYLDWYLQKPGQSPQLLIYLSSNRASGVPDRFSGSGSGTEFTLKISRVEAEDVGIYYCMQALHTPLTFGGGTKVEIK
B3: H4H17001P (antibody, human IgG4, V domains shown)
VH: QVQLVESGGGLVKPGGSLRLSCAASGFTFSDYYMNWIRQAPGKGLEWISLISSSGSAIYYSDSVKGRFTISRDNARKSLYLQVNSLRAEDTAVYYCARDRGEWALGAYYYGLDVWGQGTTVTVSS
VL: DIVMTQSPLSLPVTPGEPASISCRSSQSLLHSDGYNYLDWYLQKSGQSPQLLIYLGSNRASGVPDRFSGSGSGTDFTLKISRMEAEDVGVYYCMQALQTPYTFGQGTKLEIK
B4: H4H17082P2 (antibody, human IgG4 S228P, kappa, V domains shown)
VH: B1 VH
VL: not shown
notes: fully human, human IgG4 Fc (H4H prefix); also called MAB2; REGN5715
B5: H4H16943P (antibody, human IgG4, V domains shown)
VH: B2 VH
VL: B2 VL
notes: human IgG4 Fc (H4H prefix)
B6: H4H17001P (antibody, human IgG4, V domains shown)
VH: B3 VH
VL: B3 VL
notes: human IgG4 Fc (H4H prefix)

Key:
[1] = biological target: T1, natural Bet v 1 (Indoor, Cat #NA-BV1-1); experiment: SPR Biacore, mAb captured on anti-hFc, 25C;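 also: rate constants from sensorgrams fitted to a 1:1 model with mass transport limitation, KD and t½ derived from kinetic constants, run in HBS-ET buffer at pH 7.4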
Method: (§1) Equilibrium dissociation constants (KD) for natural Bet v 1 binding to purified anti-Bet v 1 monoclonal antibodies were determined using a real-time surface plasmon resonance biosensor (SPR-Biacore) on a Biacore 4000 instrument. All binding studies were performed in 10 mM HEPES, 150 mM NaCl, 3 mM EDTA, and 0.05% v/v surfactant Tween-20, pH 7.4 (HBS-ET) running buffer at 25° C. and 37° C. […] Association (kₐ) and dissociation (kd) rate constants were determined by fitting the real-time binding sensorgrams to a 1:1 binding model with mass transport limitation using Scrubber 2.0c curve-fitting software. Binding dissociation equilibrium constants (KD) and dissociative half-lives (t½) were calculated from the kinetic rate constants as:

[2] = biological target: T1, natural Bet v 1 (Indoor, Cat #NA-BV1-1); experiment: cell-based or functional assay
[3] = biological target: T1, natural Bet v 1 (Indoor, Cat #NA-BV1-1); experiment: SPR Biacore, mAb captured on anti-hFc, 37C;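 also: purified anti-Bet v 1 monoclonal antibodies, HBS-ET running buffer pH 7.4, rate constants from 1:1 model fit with mass transport limitation, KD and t½ calculated from kinetic constants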
Method: as §1

[4] = biological target: T2, mutant Bet v 1-MMH; experiment: BLI Octet HTX, mutant Bet v 1-MMH captured on anti-Penta-His tips, 25C
Method: (§2) Binding competition within a panel of anti-Bet v 1 monoclonal antibodies was determined using a real time, label-free bio-layer interferometry assay on the Octet HTX biosensor platform (Pall ForteBio Corp.). The entire experiment was performed at 25° C. in 10 mM HEPES, 150 mM NaCl, 3 mM EDTA, and 0.05% v/v Surfactant Tween-20, 1 mg/mL BSA, pH 7.4 (HBS-EBT) buffer with the plate shaking at the speed of 1000 rpm. […] The biosensor tips were washed in HBS-EBT buffer between every step of the experiment. The real-time binding response was monitored during the entire course of the experiment and the binding response at the end of every step was recorded.

[5] = biological target: T3, Alder (Aln g 1, MyBiosource, Cat …); experiment: SPR Biacore, 25C;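 also: binding of related allergens to purified monoclonal anti-Bet v 1 antibodies by surface plasmon resonance in HEPES-buffered saline pH 7.4, kinetics fitted to a 1:1 model with mass transport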
[6] = biological target: T4, Celery (Api g 1, MyBiosource, Cat …); experiment: SPR Biacore, 25C;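 also: binding of related allergens to purified monoclonal anti-Bet v 1 antibodies by surface plasmon resonance in HEPES-buffered saline pH 7.4, kinetics fitted to a 1:1 model with mass transport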
[7] = biological target: T5, Apple (Mal d 1, MyBiosource, Cat …); experiment: SPR Biacore, 25C;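 also: binding of related allergens to purified monoclonal anti-Bet v 1 antibodies by surface plasmon resonance in HEPES-buffered saline pH 7.4, kinetics fitted to a 1:1 model with mass transport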
[8] = biological target: T6, European Hornbeam (Car b 1 isoform 1A & …); experiment: SPR Biacore, 25C;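 also: binding of related allergens to purified monoclonal anti-Bet v 1 antibodies by surface plasmon resonance in HEPES-buffered saline pH 7.4, kinetics fitted to a 1:1 model with mass transport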
[9] = biological target: T7, natural Bet v 1; experiment: blocking ELISA, biotin nBet v 1 to captured IgE, donor 25609-MS
Method: (§3) Antibodies were tested either alone or in polyclonal mixes. […] Plates were then blocked with 0.5% BSA (w/v) for 1 hour at room temperature (RT). Plasma from allergic donors was diluted and total IgE was then captured over the receptor-coated surface. A constant amount of 0.1 nM of biotin labeled natural Bet v 1 (Indoor Biotechnologies, #NA-BV1-1) was pre-mixed with anti-Bet v 1 antibodies, at a single concentration of 1 μg/mL or in serial dilutions starting from either 10 μg/mL or 1 μg/mL of each antibody and incubated for 1 hour at RT to allow Bet v 1-antibody interaction to reach equilibrium. The antibody-Bet v 1 mixture was then added to the IgE-coated plate for 1 hour. Plates were subsequently washed and the amount of natural Bet v 1 bound to plate was detected using streptavidin conjugated to horseradish peroxidase (Thermo Scientific, #N200/QJ223091) at a 1:10,000 dilution and incubated for 1 hour at RT. Plates were then washed with PBS-T in between each step of the ELISA protocol described above. […] The reaction was stopped using 2 N sulfuric acid (H₂SO₄; VWR, #BDH3500-1). The absorbance was subsequently measured on a spectrophotometer (Victor, Perkin Elmer) at 450 nm. The percent blocking was calculated using the highest antibody concentration used in each assay as described below.

[10] = biological target: T7, natural Bet v 1; experiment: blocking ELISA, biotin nBet v 1 to captured IgE, donor 23035-BL
Method: as §3

[11] = biological target: T7, natural Bet v 1; experiment: blocking ELISA, biotin nBet v 1 to captured IgE, donor 25414-CW
Method: as §3

[12] = biological target: T7, natural Bet v 1; experiment: dose-response blocking ELISA, biotin nBet v 1 to captured IgE, donor 25340-RR
Method: as §3

[13] = biological target: T7, natural Bet v 1; experiment: blocking ELISA, biotin nBet v 1 to captured IgE, donor 25340-RR
Method: as §3

[14] = biological target: T7, natural Bet v 1; experiment: blocking ELISA, biotin nBet v 1 to captured IgE, donor 26532-CC
Method: as §3

[15] = biological target: T7, natural Bet v 1; experiment: dose-response blocking ELISA, biotin nBet v 1 to captured IgE, donor 25609-MS
Method: as §3

[16] = biological target: T7, natural Bet v 1; experiment: blocking ELISA, biotin nBet v 1 to captured IgE, donor 25299-RJ
Method: as §3

[17] = biological target: T7, natural Bet v 1; experiment: dose-response blocking ELISA, biotin nBet v 1 to captured IgE, donor 23939-MH
Method: as §3

[18] = biological target: T7, natural Bet v 1; experiment: blocking ELISA, biotin nBet v 1 to captured IgE, donor 29718-MW
Method: as §3

[19] = biological target: T7, natural Bet v 1; experiment: blocking ELISA, biotin nBet v 1 to captured IgE, donor 23939-MH
Method: as §3

[20] = biological target: T8, mutant Bet v 1-MMH; experiment: BLI Octet, mutant Bet v 1-MMH captured on anti-Penta-His tips
Method: as §2

Binder | 100 nM natural Bet v 1 Bound (RU) [1] | Kd [1] | 100 nM natural Bet v 1 Bound (RU) [3] | Kd [3] | t½ [3] | binding result [4] | koff [1] | kon [1] | t½ [1] | binding result [6] | binding result [7] | koff [3] | kon [3] | binding result [20] | further results
B1 | 72 RU | 1.09 nM | 83 RU | 2.43 nM | 6.3 min | – | – | – | – | – | – | – | – | – | blockade of basophil activation (phospho-Erk MFI in basophils of PBMCs of birch allergic donors, 100 pM natural Bet v 1) [2]: 70%
B2 | 71 RU | 1.4 nM | 88 RU | 4.89 nM | 9.1 min | no binding (tested: 50 µg/mL) | 0.00023 s⁻¹ | 164000 M⁻¹ s⁻¹ | 50 min | no binding (tested: 100 nM) | no binding (tested: 100 nM) | 0.00127 s⁻¹ | 260000 M⁻¹ s⁻¹ | – | binding result [5]: no binding (tested: 100 nM)
B3 | 71 RU | 1 nM | 87 RU | 2.52 nM | 9.5 min | no binding (tested: 50 µg/mL) | 0.000329 s⁻¹ | 329000 M⁻¹ s⁻¹ | 35 min | no binding (tested: 100 nM) | no binding (tested: 100 nM) | 0.00122 s⁻¹ | 485000 M⁻¹ s⁻¹ | – | binding result [8]: no binding (tested: 100 nM)
B4 | – | – | – | – | – | – | – | – | – | – | – | – | – | – | Percent Blocking (at 1 µg/mL each antibody) [9]: 51%; Percent Blocking (at 1 µg/mL each antibody) [10]: 52%; Percent Blocking (at 1 µg/mL each antibody) [11]: 38%; Percent Blocking (at 1 µg/mL each antibody) [12]: 82.7%; Percent Blocking (at 1 µg/mL each antibody) [13]: 81%; Percent Blocking (at 1 µg/mL each antibody) [14]: 74%; Percent Blocking (at 1 µg/mL each antibody) [15]: 56.4%; Percent Blocking (at 1 µg/mL each antibody) [16]: 66%; Percent Blocking (at 1 µg/mL each antibody) [17]: 82.9%; Percent Blocking (at 1 µg/mL each antibody) [18]: 49%; Percent Blocking (at 1 µg/mL each antibody) [19]: 79%
B5 | – | – | – | – | – | – | – | – | – | – | – | – | – | no binding (tested: 50 µg/mL) | –
B6 | – | – | – | – | – | – | – | – | – | – | – | – | – | no binding (tested: 50 µg/mL) | –
